B1: HDV Ribozyme (parent)
chain: GGCCGGCAUGGUCCCAGCCUCCUCGCUGGCGCCGGCUGGGCAACAUUCCGAGGGGACCGUCCCCUCGGUAAUGGCGAAUGGGACCCA

Consider 167 variants from the RNAGym collection of RNA variant scans (doi:10.7554/elife.80360).

The variants in this series derive from B1. The experiment in a line: self-cleavage, relative activity (ratio to wild type); higher = more cleavage; co-transcriptional.
In the case of C19U G55U, the self-cleavage turned out to be 0.0573. The result for C19U A42G reads 0; that for C19U A42C, 0.104. With C19U G74U, the self-cleavage was found to be 0.0762. Then C19G C48G, with 0.148; and C19A U47C, with 0.148; and C19A U47G, with 0.0361. The result for C19A U47A reads 0.0554; that for C19G G67C, 0.0287; that for C19A C22A, 0.112. As for C19G A71C, the self-cleavage was found to be 0.0665. Then C19U G35U, with 0.0519; and C19U C49G, with 0.154; and C19A G52C, with 0.125. The result for U20A A45U reads 0.

As for C19U U79G, the self-cleavage was 0.0997. The result for C19U U79A reads 0.0396; that for C19G G80U, 0.0902; that for C19G U23C, 0.

Turning to C19G C57G, the self-cleavage amounted to 0.0739. U20A C49A: the self-cleavage is 0. The result for U20A C49G reads 0.128. Then C19G C63U, with 0.0978; and C19A G74A, with 0.0755; and C19U G67C, with 0.0715.

With C19U G25C, the self-cleavage came out at 0.0489. The result for C19U G25U reads 0.188; that for C19U C21A, 0.0573. In the case of C19G C33G, the self-cleavage was found to be 0. For the variant C19G C33A, the self-cleavage is 0.111. For C19U G59A, the self-cleavage is 0.145. Regarding U20A C24U, the self-cleavage is 0.162. The result for U20A C24A reads 0.0415; that for C19A A43U, 0.0222; that for C19U G34A, 0.0468. Then C19A U37C, with 0.0845; and C19U G38A, with 0.0875. For C19A A78C, the self-cleavage came out at 0.0248.

As for C19U A83C, the self-cleavage amounted to 0.217.

Take C19U G50U: the self-cleavage was found to be 0.159. The result for C19G C26A reads 0.104. Then C19G C26G, with 0; and U20A C22A, with 0.0898; and C19G G28C, with 0.912. The result for C19A C36G reads 0.0923. Consider C19A C36U, for which the self-cleavage stood at 0.0468. Then C19A G38A, with 0.125. The result for C19A C85G reads 0.149.

Take C19A C85A: the self-cleavage came to 0.0963.

In the case of C19U U20C, the self-cleavage is 0.145.

Consider C19U A70C, for which the self-cleavage amounted to 0.0906. The result for C19U A70G reads 0.141; that for C19A A87U, 0.223. Consider C19U A51U, for which the self-cleavage worked out at 0.0923. Then C18U U69G, with 0.453; and C19U C32G, with 0.0482; and U20A A43C, with 0.0978. Then C19U C36U, with 0.0314; and C19U C86A, with 0.194. Then C19U C86U, with 0.122; and C19U C86G, with 0.116; and C19U A77G, with 0.253. For the variant C19U G29A, the self-cleavage was found to be 0.102. Then C19A C57U, with 0.155; and C19G A51U, with 0.0678. The result for C19A U27A reads 0.312. Consider C19A U27C, for which the self-cleavage worked out at 0.0536.

As for C19G C84A, the self-cleavage came out at 0.0898. On to C19A G80U, for which the self-cleavage amounted to 0.0513. Then C19G C49U, with 0.0326; and C19A C30A, with 0.0357.

With C19A U20G, the self-cleavage is 0.217. Then C19G G54C, with 0.0489. With C19G G73A, the self-cleavage was determined as 0.021. As to U20A C33A, the self-cleavage was 0. The result for C19U A43G reads 0.0545; that for C19G C66U, 0.0639; that for C19G C75U, 0.161. The result for C19G C85A reads 0.148; that for C19G G82C, 0.0594. The result for C19G G35A reads 0.0297. Regarding C19U G40U, the self-cleavage stood at 0.0839. The result for C19A G28U reads 0.79; that for C19G A78U, 0.0773. The result for C19U G76A reads 0.197; that for C19U G53U, 0.215; that for C19U G82A, 0.0511.

For the variant C19U G82C, the self-cleavage came out at 0.0817.

As to C19A G39C, the self-cleavage is 0. Then C19A G39A, with 0.114; and C19A G82A, with 0.113. The result for C19A G68A reads 0.0631; that for U20A A56U, 0.0519; that for U20A C21G, 0.256. Regarding U20A C21A, the self-cleavage is 0.0536. Then C19U G31A, with 0.102. Then C19G G39C, with 0.0978; and U20A C58U, with 0.158. With C19G A43G, the self-cleavage turned out to be 0.155. Then C19G G38A, with 0.0511; and C19A C84G, with 0.196. Then C19A C84A, with 0.0519; and C19A G76U, with 0.262; and C19A G76C, with 0.102.

C19G A83G: the self-cleavage was 0.0678. Then C19U U23C, with 0; and U20A C62A, with 0.119; and U20A A71G, with 0.0665. C19A G81A: the self-cleavage came to 0.0449. Then C19U G39C, with 0.133; and C19A U79A, with 0.0773.

Take C19U C24A: the self-cleavage is 0.0791. The result for C19A C75G reads 0.0528. The result for C19A C75U reads 0.058; that for U20A A42G, 0; that for C19G C32A, 0.0462. For C18U U72G, the self-cleavage came to 0.287. Then C18U U72C, with 0.193. Then C18U U72A, with 0.175; and C19U C33A, with 0.0665; and C19G G31U, with 0.0723. The result for C19G U27A reads 0.0615; that for C19G U27G, 0; that for U20A C32G, 0.111. Turning to C19G G76A, the self-cleavage turned out to be 0.0545. The result for C19A G59A reads 0.125. Then C19A C62G, with 0.104; and C19A C62U, with 0.111. The result for C19U G52A reads 0.137; that for C19U G52U, 0.265; that for C19U U72G, 0.0396. Consider U20A C48U, for which the self-cleavage amounted to 0.

Regarding C19U C85A, the self-cleavage worked out at 0.0378. Then C19G U37A, with 0.0627; and C19G G74A, with 0.161.

As to C19U A87U, the self-cleavage is 0.149. Then C19U C22U, with 0.058; and C19U C22A, with 0.0886; and C19A U46G, with 0.0386. The result for C19A G73A reads 0.0519; that for C19A G73U, 0.0631.

For the variant C19U C57U, the self-cleavage was 0.165. Then C19U C57G, with 0.089; and U20A C61A, with 0.111; and C19A U23C, with 0.0519. Then C19A U23G, with 0.0923; and C19U C30U, with 0.0608. Then C19A G25U, with 0.0791; and C19G U69G, with 0.102. On to C19G G68A, for which the self-cleavage is 0.021. Then C19A G31U, with 0.192. Then C19A G31C, with 0.141.

C19U C61A: the self-cleavage came out at 0.243.

C19G C36A: the self-cleavage is 0.0277. Then C19U G73C, with 0.0479.

Turning to C19U G73U, the self-cleavage stood at 0.12. The result for C19U G73A reads 0.122. The result for C19A A56U reads 0.122; that for C18U U79G, 0.119.

As to C19A G34U, the self-cleavage stood at 0. C19A C24U: the self-cleavage turned out to be 0.0674. Then C19G G52U, with 0.145; and C19G U46C, with 0.13. With C19G C21U, the self-cleavage was 0.122.

C19A C21U: the self-cleavage is 0.134.

For the variant C19U A45C, the self-cleavage was found to be 0.0767. Consider C19U C63A, for which the self-cleavage was 0.199.
